Results taken from patent US20080193435A1, “Revascularization of Ischemic Retinal Tissue and Screening Method Therefor” (priority 2005, published 2008).
“Also recorded” adds a separate entry of the source.

B1: T2-TrpRS: proteolytic fragment of tryptophan tRNA synthetase (TrpRS); SEQ ID NO: 1 (protein, listed as Homo sapiens)
chain: SAKGIDYDKLIVRFGSSKIDKELINRIERATGQRPHHFLRRGIFFSHRDMNQVLDAYENKKPFYLYTGRGPSSEAMHVGHLIPFIFTKWLQDVFNVPLVIQMTDDEKYLWKDLTLDQAYSYAVENAKDIIACGFDINKTFIFSDLDYMGMSSGFYKNVVKIQKHVTFNQVKGIFGFTDSDCIGKISFPAIQAAPSFSNSFPQIFRDRTDIQCLIPCAIDQDPYFRMTRDVAPRIGYPKPALLHSTFFPALQGAQTKMSASDPNSSIFLTDTAKQIKTKVNKHAFSGGRDTIEEHRQFGGNCDVDVSFMYLTFFLEDDDKLEQIRKDYTSGAMLTGELKKALIEVLQPLIAEHQARRKEVTDEIVKEFMTPRKLSFDFQ
B2: FL-TrpRS: full-length tryptophan tRNA synthetase (protein, UniProt P23381 1-471, looked up)
chain: MPNSEPASLLELFNSIATQGELVRSLKAGNASKDEIDSAVKMLVSLKMSYKAAAGEDYKADCPPGNPAPTSNHGPDATEAEEDFVDPWTVQTSSAKGIDYDKLIVRFGSSKIDKELINRIERATGQRPHHFLRRGIFFSHRDMNQVLDAYENKKPFYLYTGRGPSSEAMHVGHLIPFIFTKWLQDVFNVPLVIQMTDDEKYLWKDLTLDQAYSYAVENAKDIIACGFDINKTFIFSDLDYMGMSSGFYKNVVKIQKHVTFNQVKGIFGFTDSDCIGKISFPAIQAAPSFSNSFPQIFRDRTDIQCLIPCAIDQDPYFRMTRDVAPRIGYPKPALLHSTFFPALQGAQTKMSASDPNSSIFLTDTAKQIKTKVNKHAFSGGRDTIEEHRQFGGNCDVDVSFMYLTFFLEDDDKLEQIRKDYTSGAMLTGELKKALIEVLQPLIAEHQARRKEVTDEIVKEFMTPRKLSFDFQ
modifications: full-length
notes: full-length tryptophan tRNA synthetase

Key:
[1] = tested on: angiogenesis; details: previously found; cited from earlier work
[2] = tested on: mouse OIR model; assay: Mouse oxygen-induced retinopathy (OIR) model, whole-mount retina quantification of vascular obliteration and neovascular tuft areas; type: in vivo; design: vascular morphology of the retina / neovascular tuft areas compared to VEGF aptamer treated retinas: dose or concentration left out as unconfirmed; details: for effect on area of neovascular tuft formation: single intravitreal injection at P12, various doses; for effect on physiological revascularization of the retina: vs PBS control
Description: All animal work adhered to strict protocol guidelines for the humane care and use of animals in research. OIR was induced according to the protocol described by Smith et al. Invest. Opthalmol. Vis. Sci., 1994; 35:101-111. Seven-day old mouse pups and their mothers were transferred from room air to a hyperoxic environment of about 75% oxygen for 5 days, and afterwards returned to room air (normoxia). Exposure to hyperoxic conditions was performed by putting the animal cages within a modified human infant incubator. Oxygen was circulated through the incubator (using an animal anesthesia machine to control flow) and levels were monitored and maintained at 74-75% using an FDA-approved oxygen analyzer (AX-300, Teledyne Analytical Instruments, CA, USA). During the 5 days of hyperoxia, the animals were examined at least three times daily. Unlimited food and water were available to the mothers throughout the experiment. After 5 days, i.e., at postnatal Day 12 (P12), cages were returned to room air.
After the mice were euthanized, enucleated eyes were fixed in 4% paraformaldehyde in PBS for about 10 minutes, and the retinas were dissected by making a circular cut behind the limbus, approximately at the iris root, and then removing the anterior part of the eye. The lens and vitreous were dissected out, and the retina was separated from the scleral and choroidal layers leaving the retina in an eye-cup configuration. Radial relaxing-incisions were made in the retina to allow it to flatten and any remnants of the vitreous or hyaloid were carefully removed from the flattened retina.
For FITC-dextran angiography, animals were anaesthetized by intraperitoneal injections of Ketamine HCl (Ketalar, Parke Davis, UK, 100 mg/kg) in combination with the relaxing agent Xylazine (2 mg/kg). Approximately 300 μl of high molecular weight (2×106 Da) FITC-Dextran (concentration 50 mg/ml, Sigma, St. Louis, Mo.) were injected into the left ventricle and allowed to circulate for approximately two minutes before euthanizing the animal and enucleating the eyes. For isolectin G4 staining, retinas were post-fixed in 4% paraformaldehyde for about 45 minutes, and incubated at room temperature overnight with isolectin GS-IB4 from Griffonia simplicifolia (isolectin GS) that was conjugated to Alexa Fluor 59 4 (Molecular Probes, 1:150 dilution in phosphate buffered saline (PBS)) to afford “isolectin GS-594”. Following 4-5 washes with PBS over a 2 hour span, retinas were mounted as whole-mount preparations on slides with SLOW FADE (Molecular Probes) for subsequent imaging.
Micrographic images were taken using a 4× objective lens with a detector resolution of 512×512 pixels. Extra care was taken to focus just above the inner limiting membrane of the retina using confocal microscopy (BioRad) so that the pre-laminar neovascular tufts became more prominent than the underlying superficial vascular plexus making subsequent quantification of the neovascular tuft areas easier. In most cases, four overlapping images (each representing one retinal quadrant) were acquired from each retina. Using Adobe PHOTOSHOP® 6.0, montages were then created using retinal landmarks such as the optic disc and major vessels to align the images. These montages allowed visualization and quantification of the entire retina. In a few cases where both the obliterated areas and all areas of neovascularization were located toward the center of the retina, single 4× images centered on the optic disk were acquired. While the peripheral retina is not included in its entirety in such images, the relevant OIR-induced changes can be fully seen in these cases. Each individual image was converted to a 2×2 inch size with 300 pixels per inch resolution prior to creating the montage and quantifying the obliteration and neovascular tuft areas. […]

[3] = single intravitreal injection at P12, read at P17

Molecule | angiostatic activity in other models of angiogenesis [1] | reduction of tuft formation ([2]; P19, after two injections (P13 and P16) of lower doses, VEGF aptamer 0.5 mg/eye/injection, 53.9 picomoles) | neovascular tuft areas compared to VEGF aptamer treated retinas ([2]; T2-TrpRS, intravitreal, molar concentration 10-fold below the aptamer) | inhibition of neovascular tuft formation ([2]; about 1.25 μg/eye, intravitreal) | vascular morphology of the retina ([2]; intravitreal at P12, P17) | obliterated areas compared to control retinas ([2]; intravitreal injection, areas of obliteration equivalent at time of injection) | effect on area of neovascular tuft formation ([2]; read at P17) | reduction of obliterated areas at P17 compared to PBS control-injected retinas [2, 3] | effect on physiological revascularization of the retina [2, 3]
B1 | potent angiostatic potential | over 75% | slight, but significant reduction | nearly complete inhibition | looked nearly normal | reduced by half | markedly reduced the area of neovascular tuft formation at P17 in a dose-dependent matter; also recorded: potent inhibitors of neovascular tuft formation; also recorded: strong, dose-dependent angiostatic effect | around 40% | significantly enhanced revascularization, even at lower doses
B2 | no angiostatic activity |  |  |  |  |  | some activity at the highest dose |  | significant enhancement of the revascularization process but only at the higher doses
